Reference: US6482410B1, “Cytotactin derivatives that stimulate attachment and neurite outgrowth, and methods of making same” (The Scripps Research Institute, priority 1994, dated 2002)
Several values for one entry are separate records, joined by “and”; a condition that tells them apart may be missing. Identical values can stand only once. Entries after “also recorded” stand apart in the source; their conditions may differ.

B1: CTfg: CT:GST fusion protein, entire fibrinogen domain, residues 1570-1810 of SEQ ID NO 4 (protein)
chain: SMRSKMIQTVFTTTGLLYPYPKDCSQALLNGEVTSGLYTIYLNGDRTQPLQVFCDMAEDGGGWIVFLRRQNGKEDFYRNWKNYVAGFGDPKDEFWIGLENLHKISSQGQYELRVDLRDRGETAYAVYDKFSVGDAKTRYRLRVDGYSGTAGDSMTYHNGRSFSTFDKDNDSAITNCALSYKGAFWYKNCHRVNLMGRYGDNNHSQGVNWFHWKGHEYSIQFAEMKLRPSSFRNLEGRRKRA
modifications: left off: a dimerising Fc or GST
B2: CTfn6: CT:GST fusion protein, fibronectin type III repeat VI, residues 1318-1398 of SEQ ID NO 4 (protein)
chain: VVGSPKGISFSDITENSARVSWTPPRSRVDSYRVSYVPITGGTPNVVTVDGSKTRTKLVKLVPGVDYNVNIISVKGFEESE
modifications: left off: a dimerising Fc or GST
B3: CTfn3: CT:GST fusion protein, fibronectin type III repeat III, residues 774-864 of SEQ ID NO 4 (protein)
chain: LDAPSQIEAKDVTDTTALITWSKPLAEIEGIELTYGPKDVPGDRTTIDLSEDENQYSIGNLRPHTEYEYEVTLISRRGDMESDPAKEVFVT
modifications: left off: a dimerising Fc or GST

How the values were obtained:
[1] = tested on: dorsal root ganglia (DRG) neurons; experiment: Two-dimensional neurite outgrowth assay, DRG, 15 hours; format: cell-based, chicken; conditions: 15 hours; for neurite promoting activity on DRG cells: low density; for % Sprouting / Neurite Length: Table 4, DRG; for % Sprouting: neurites greater than one cell diameter; for Neurite Length: per neurite-bearing cell; for Percent Sprouting / Neurite Length (in microns): Table 5, DRG; for Percent Sprouting: six experiments; for Neurite Length (in microns): three experiments
Experimental: (§1) Dorsal root ganglia (DRG) cells or forebrain neurons were prepared for the cell attachment assays as follows. DRG from day 6 chicken embryos or forebrains from day 7 chicken embryos were dissected into HBSS. The tissue was pelleted by centrifugation and resuspended in CMF-HBSS and incubated at 37° C. for 10 minutes. The tissue was pelleted again and resuspended in CMF-HBSS containing 0.08% trypsin and allowed to trypsinize for 20 minutes at 37° C. An equal volume of DMEM/F12, 10% FCS, 20 ng/ml nerve growth factor (NGF) (for DRG cells only), 10 μg/ml gentamycin (10% medium) was added, and the tissue was pelleted and resuspended in 2 ml of the 10% medium. The cells were triturated with a fire-polished Pasteur pipette for 15 strokes, and the cells were washed and resuspended in 10 ml of 10% medium. DRG cells were plated in a 10 cm tissue culture dish and incubated for 1 hour at 37° C. in 5% CO2, to allow for attachment of contaminating fibroblasts.
(§2) After replating, the cells were harvested, pelleted and washed three times in DMEM/F12, 1% fetal calf serum (FCS), 20 ng/ml NGF (for DRG cells only), 10 μg/ml gentamycin (1% medium), and the number of cells determined using a hemocytometer. The DRG were resuspended to a density of 6×10^5 cells/ml in attachment buffer. The neurons were resuspended to a density of 2×10^4 cells/ml in 1% medium and added to substrates and placed at 37° C., 5% CO2 for 15 hours.
After the growth period, the dishes were gently rinsed with PBS to remove unbound cells, fixed with 1% glutaraldehyde, and viewed by phase contrast microscopy. Ten to forty cells were analyzed for each substrate. Cells were judged as neurite-bearing if the length of the processes was greater than one cell diameter. All cells with neurites were photographed with a 20× objective and total neurite length per neurite-bearing cell was derived from the photographic prints. Percentage of neuronal sprouting was calculated from at least six experiments. Neurite length was calculated from at least three experiments.
This extensive neurite outgrowth after 40 hours made quantitation of the percentage of neurite-bearing cells and neurite length difficult. To analyze quantitatively the effect of CT/TN fusion proteins on DRG neurite outgrowth, DRG cells were therefore plated at low density on CT/TN or CT/TN fragments and analyzed after 15 hours in culture for the percentage of cells that sprouted neurites greater than one cell diameter and for the everage neurite length per neuron. These conditions enhanced the number of isolated cells and discouraged the cell-cell interactions and fasciculation that occurred in the long-term cultures.
The proteins used in the neurite outgrowth assays are the same as those used in the cell attachment assays. […] In addition, poly-L-lysine was adsorbed to the solid support. […] Any cells adhering to the solid support were examined for sprouting and neurite length as defined herein.
Proteins used in the neurite outgrowth assays were prepared as described in Example 5.A.2.
Dorsal root ganglia (DRG) from day 6 chicken embryos were prepared as described in Example 5.A.4. For the neurite outgrowth assays, the DRG were resuspended at a density of 2×10^4 cells/ml in 1% medium, added to solid support, and placed at 37° C. in 5% CO2 for 15 hours. After the attachment and growth period, the dishes were gently rinsed with PBS to remove unbound cells, fixed with 1% (v/v) glutaraldehyde, and viewed by phase contrast microscopy. Ten to thirty cells were analyzed for each adsorbed protein spot. Cells were judged as neurite-bearing if the length of the processes were greater than one cell diameter. All cells with neurites were photographed with a 40× objective and the total neurite length per neurite-bearing cell was derived from the prints. The percent of cells that were sprouting and the average neurite length was derived from six and three independent experiments, respectively. […]

[2] = tested on: dorsal root ganglia (DRG) cells; experiment: Cell attachment assay, DRG neurons on protein-coated solid support; format: cell-based, chicken; conditions: short-term attachment assay
Experimental: as §1
as §2, with “The neurons were resuspended to a density of 2×10^4 cells/ml in 1% medium and added to substrates and placed at 37° C., 5% CO2 for 15 hours.” left out
Chicken fibroblasts, DRG, and solid supports (dishes) coated with CT for use in the cell attachment assays were prepared as described in Examples 5.A.2-4, respectively. […] The number of bound cells was determined using a 10× objective with an eyepiece reticle. The number of cells was determined in four fields for each fusion protein dot as the number of cells bound per […]. […] The number of cells bound for CT was expressed as the average of the twelve measurements±standard deviation […]. […]
Cell attachment assays were performed essentially as follows. […] The cells were then washed in attachment buffer (CMF-HBSS, 10 mM Hepes, 1 mM CaCl2, 1 mM MgCl2, 0.1 mM MnCl2, 2% BSA) three times, counted in a hemocytometer, resuspended to a density of 6×10^5 cells/ml. […]

Molecule	DRG neurite length versus polylysine ([1]; DRG)	percentage of neurite-bearing DRG cells versus polylysine ([1]; DRG)	neurite promoting activity on DRG cells ([1]; DRG)	% Sprouting [1] [%]	Neurite Length [1] [microns]	Percent Sprouting [1]	Neurite Length (in microns) [1] [microns]	DRG neuron attachment to coated substrate (words) [2]	increase in number of neurite-bearing cells over polylysine ([1]; DRG)	DRG neuron attachment to coated substrate (words) ([2]; listed as Ctfn6)	average neurite length relative to poly-L-lysine ([1]; DRG) [times]
B1	not statistically different; also recorded: statistically indistinguishable	comparable	did show neurite promoting activity	8 ± 3	82 ± 23	8 ± 3	83 ± 23	able to support DRG neuron attachment; also recorded: attached well	–	–	–
B2	not statistically different; also recorded: statistically indistinguishable	increase in neurite outgrowth over poly-L-lysine	did show neurite promoting activity	31 ± 2	153 ± 124	31 ± 2	154 ± 124	able to support DRG neuron attachment; also recorded: supports both fibroblast and neuronal cell attachment	82% and 57%	support fibroblast and neuronal cell attachment	–
B3	significantly longer	comparable; also recorded: the same as on poly-L-lysine	did show neurite promoting activity	12 ± 2	260 ± 141	12 ± 2	260 ± 141	–	–	–	3
